Earlier results, collected in US9545449B2, “Site-specific labeling and targeted delivery of proteins for the treatment of cancer” (Advanced Proteome Therapeutics Inc., priority 2012, dated 2017).

Conditions: binding to phosphatidylserine; from Thiagarajan and Tait, J. Biol. Chem. 265:17420-17423 (1990); read-out: Kd (affinity for PS)

B1: Annexin V: human annexin V (SEQ ID NO:1) (Accession P08758); phosphatidylserine-binding protein (protein, listed as Homo sapiens)
chain: MAQVLRGTVTDFPGFDERADAETLRKAMKGLGTDEESILTLLTSRSNAQRQEISAAFKTLFGRDLLDDLKSELTGKFEKLIVALMKPSRLYDAYELKHALKGAGTNEKVLTEIIASRTPEELRAIKQVYEEEYGSSLEDDVVGDTSGYYQRMLVVLLQANRDPDAGIDEAQVEQDAQALFQAGELKWGTDEEKFITIFGTRSVSHLRKVFDKYMTISGFQIEETIDRETSGNLEQLLLAVVKSIRSIPAYLAETLYYAMKGAGTDDHTLIRVMVSRSEIDLFNIRKEFRKNFATSLYSMIKGDTSGDYKKALLLLCGEDD
With B1 as the molecule, how does the Kd read?
Its Kd is 1.7 nM.
